These results are taken from patent US20070254831A1 (published 2007).

Read-outs that look alike come from different tables or passages of the source. Bridge positions count the residues as written; N and C are the ends. Square brackets hold non-standard residues; d marks the D form. Ends that are not written are not given here. Pen = CC(C)(S)[C@H](N)C(=O)O; Dab = NCC[C@H](N)C(=O)O

Test [1] addresses T1, soluble human FcRn (human, UniProt P55899 24-297; P61769 21-119, biotinylated (Sulfo-NHS-LC-Biotin) in the ELISA; amine-coupled to CM5 chip in SPR).
T1 construct: also called shFcRn; biotinylated shFcRn
Put plainly: ELISA, competitor human IgG. On the technique in general: ELISA stands for enzyme-linked immunosorbent assay.
Description: (§1) The wells were coated with 100 μl/well of 1 μg/ml biotinylated-shFcRn in Buffer A. The plate was sealed and incubated at 37° C. for 2 hours. Afterwards, the plate washed with 200 μl/well of Buffer B (Buffer B: 100 mM MES pH 6, 150 mM NaCl, 0.5% BSA IgG-free (Jackson ImmunoResearch, West Grove, Pa.), 0.05% Tween-20). […] To allow for mixing, the plate was rocked for 2 minutes, sealed and incubated at 37° C. for 2 hours. […] The plate was covered, incubated for 30 minutes at room temperature and washed 4 times with 200 μl/well of ice-cold buffer B. SureBlue TMB substrate solution (100 μl/well, KPL, Gaithersburg, Md.) was added and the plate was allowed to incubate at room temperature until color developed, which took 5 to 10 minutes. Once color developed, 100 μl/well of TMB stop solution (KPL, Gaithersburg, Md.) was added and the absorbance was measured at 450 nm. The data was plotted as absorbance vs. peptide concentration to derive the inhibitory concentration 50% (IC₅₀) values.

Test [2] addresses T1, soluble human FcRn. Put plainly: SPR, pH 6.
Description: (§2) The following steps were performed to cross-link soluble human or cynomolgus FcRn to the dextran surface of a CM5 sensor chip (Biacore AB, Uppsala, Sweden) by an amine coupling reaction involving 1-ethyl-(3-dimethylaminopropyl)-carbodiimide hydrochloride (EDC) (Biacore AB, Uppsala, Sweden) and N-hydroxysuccinimide (NHS) (Biacore AB, Uppsala, Sweden) as recommended by Biacore (BIAapplications Handbook, version AB, section 4.2, Biacore AB, Uppsala, Sweden). […] Residual sites on the FcRn flow cell were blocked with 1 M ethanolamine hydrochloride pH 8.5 (Biacore AB, Uppsala, Sweden). A control flow cell was blocked with ethanolamine for reference subtraction. For analysis of the monomeric peptides, FcRn was coated to a final density of 4000-5000 response units (RU). For analysis of the peptide dimers, FcRn was coated to a density of 2000-2500 RU. All SPR measurements were performed using a BIACORE 3000 Instrument (Biacore AB Uppsala, Sweden). For measurements done at either pH 6 or pH 7.4, experiments were performed in 50 mM phosphate, 100 mM sodium chloride, 0.01% surfactant P20 (Biacore AB, Uppsala, Sweden).
(§3) Ten, 2-fold dilutions of the peptide were injected over the FcRn-CM5 chip at a rate of 20 μl/min for 2 min. The peptide was dissociated from the chip for 2.5 minutes with buffer. Any remaining peptide was removed from the chip with a 30 second injection of HBS-P buffer (Biacore AB, Uppsala, Sweden) at a rate of 30 μl/min. Sensorgrams were generated and analyzed using BiaEval software version 3.1 (Biacore AB, Uppsala, Sweden). The equilibrium RU observed for each injection was plotted against concentration. The equilibrium KD values were derived by analysis of the plots using the steady state affinity model included in the BiaEval software.
Test [3] deals with T1, soluble human FcRn. The experiment in a line: SPR, pH 6. The source holds these as a separate data set. In general terms: Surface plasmon resonance follows binding to a sensor surface in real time, without labels.
Description: as §2, §3
Test [4] deals with T1, soluble human FcRn. Put plainly: ELISA, competitor human IgG. The source holds these as a separate data set.
Description: as §1

In general, IC50 refers to the concentration that inhibits the measured activity by half. What is called Kd is the constant that tells how readily two partners part at equilibrium. The low end stands for higher affinity, the high end for lower affinity.

T1 sequence (P55899 24-297 limits assumed, chain 1 of 2): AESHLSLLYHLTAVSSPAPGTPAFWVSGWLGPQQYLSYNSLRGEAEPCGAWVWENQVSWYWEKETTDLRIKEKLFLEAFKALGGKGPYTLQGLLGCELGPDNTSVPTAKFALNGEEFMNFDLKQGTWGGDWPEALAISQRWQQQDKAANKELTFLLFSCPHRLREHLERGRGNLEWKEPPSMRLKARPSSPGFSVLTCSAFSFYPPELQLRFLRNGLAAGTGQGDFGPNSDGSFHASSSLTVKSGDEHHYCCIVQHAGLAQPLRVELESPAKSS
T1 sequence (P61769 21-119 limits assumed, chain 2 of 2): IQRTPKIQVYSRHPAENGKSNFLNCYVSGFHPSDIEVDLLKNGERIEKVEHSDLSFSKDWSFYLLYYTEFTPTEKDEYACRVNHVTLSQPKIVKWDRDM

In the test with soluble human FcRn [1], RFXTGXFGGLYPC (Pen at 3; 4aminoPhe at 6; Sar at 9; NMeLeu at 10; disulfide; C-terminal amide) [Peptide No. 258] came in with a half-maximal inhibitory concentration (IC50) of 4.6 µM.

B1: Peptide No. 262 (peptide)
peptide: RFXTGXFGGLYPC
modifications: Pen at 3; 2-PyrrolidinylAla at 6; Sar at 9; NMeLeu at 10; disulfide; C-terminal amide
In the test with soluble human FcRn [2], B1 yielded a Kd of 8400 nM. In the test with soluble human FcRn [2], QRFXTGXFGGLYPCNGP (Pen at 4; (1Me)His at 7; disulfide; C-terminal amide) [Peptide No. 138] showed a Kd of 740 nM. This molecule also yielded an IC50 with soluble human FcRn [1] of 3.4 µM. For the molecule QRFXTGXFGGLYPCNGP (Pen at 4; Thz at 7; disulfide; C-terminal amide) [Peptide No. 91], the 50% inhibitory concentration (IC50) with soluble human FcRn [1] came to 44 µM. In the case of QRFXTGHFGYLYPCNGP (Pen at 4; D-Tyr at 10; disulfide; C-terminal amide) [Peptide No. 45], in the test with soluble human FcRn [3], the Kd is 1500 nM.

In the case of QRFXTGHFAGLYPCNGP (Pen at 4; D-Ala at 9; disulfide; C-terminal amide) [Peptide No. 75], in the test with soluble human FcRn [3], the Kd was determined as 490 nM.

B2: Peptide No. 149 (peptide)
peptide: QRF[Pen]TGHF[dA][dP]LYPCNGP-NH2
modifications: disulfide 4-14; N-terminus assumed
SMILES: CC(C)C[C@@H]1NC(=O)[C@H]2CCCN2C(=O)[C@@H](C)NC(=O)[C@H](Cc2ccccc2)NC(=O)[C@H](Cc2c[nH]cn2)NC(=O)CNC(=O)[C@H]([C@@H](C)O)NC(=O)[C@@H](NC(=O)[C@H](Cc2ccccc2)NC(=O)[C@H](CCCNC(=N)N)NC(=O)[C@@H](N)CCC(N)=O)C(C)(C)SSC[C@@H](C(=O)N[C@@H](CC(N)=O)C(=O)NCC(=O)N2CCC[C@H]2C(N)=O)NC(=O)[C@@H]2CCCN2C(=O)[C@H](Cc2ccc(O)cc2)NC1=O
The molecule B2 showed an IC50 in the test with soluble human FcRn [4] of 3.7 µM. On to QRFXTGHFGALYPCNGP (Pen at 4; D-Ala at 10; disulfide; C-terminal amide) [Peptide No. 74], for which, in the test with soluble human FcRn [3], binding was put at a Kd of 480 nM. The same molecule came in with an IC50 in the test with soluble human FcRn [4] of 2 µM.

B3: Peptide No. 155 (peptide)
peptide: QRF[Pen]TGHF[dF]GPYPCNGP-NH2
modifications: disulfide 4-14; N-terminus assumed
SMILES: C[C@@H](O)[C@@H]1NC(=O)[C@@H](NC(=O)[C@H](Cc2ccccc2)NC(=O)[C@H](CCCNC(=N)N)NC(=O)[C@@H](N)CCC(N)=O)C(C)(C)SSC[C@@H](C(=O)N[C@@H](CC(N)=O)C(=O)NCC(=O)N2CCC[C@H]2C(N)=O)NC(=O)[C@@H]2CCCN2C(=O)[C@H](Cc2ccc(O)cc2)NC(=O)[C@@H]2CCCN2C(=O)CNC(=O)[C@@H](Cc2ccccc2)NC(=O)[C@H](Cc2ccccc2)NC(=O)[C@H](Cc2c[nH]cn2)NC(=O)CNC1=O
The molecule B3 gave a Kd with soluble human FcRn [3] of 18300 nM. The same molecule yielded an IC50 in the test with soluble human FcRn [4] of 39 µM. QRFXTGHFFPLYPCNGP (Pen at 4; D-Phe at 9; D-Pro at 10; disulfide; C-terminal amide) [Peptide No. 150] registered a Kd with soluble human FcRn [3] of 720 nM. For the same molecule, the IC50 with soluble human FcRn [4] was found to be 5.9 µM.

The molecule QRFXTGHFAALYPCNGP (Pen at 4; D-Ala at 9 and 10; disulfide; C-terminal amide) [Peptide No. 148] yielded a Kd with soluble human FcRn [3] of 450 nM.

B4: Peptide No. 151 (peptide)
peptide: QRF[Pen]TGHF[dF][dA]LYPCNGP-NH2
modifications: disulfide 4-14; N-terminus assumed
SMILES: CC(C)C[C@@H]1NC(=O)[C@@H](C)NC(=O)[C@@H](Cc2ccccc2)NC(=O)[C@H](Cc2ccccc2)NC(=O)[C@H](Cc2c[nH]cn2)NC(=O)CNC(=O)[C@H]([C@@H](C)O)NC(=O)[C@@H](NC(=O)[C@H](Cc2ccccc2)NC(=O)[C@H](CCCNC(=N)N)NC(=O)[C@@H](N)CCC(N)=O)C(C)(C)SSC[C@@H](C(=O)N[C@@H](CC(N)=O)C(=O)NCC(=O)N2CCC[C@H]2C(N)=O)NC(=O)[C@@H]2CCCN2C(=O)[C@H](Cc2ccc(O)cc2)NC1=O
In turn, B4 registered an IC50 with soluble human FcRn [4] of 4.3 µM.

In turn, QRFXTGHFPGLYPCNGP (Pen at 4; D-Pro at 9; disulfide; C-terminal amide) [Peptide No. 48] showed an IC50 with soluble human FcRn [4] of 5 µM. The molecule QRFXTGHFPPLYPCNGP (Pen at 4; D-Pro at 9 and 10; disulfide; C-terminal amide) [Peptide No. 152] returned an IC50 with soluble human FcRn [4] of 21 µM. In the test with soluble human FcRn [4], QRFXTGHFHGLYPCNGP (Pen at 4; D-His at 9; disulfide; C-terminal amide) [Peptide No. 50] displayed an IC50 of 3.6 µM.

Molecule QRFXTGHFAGLYPCNGP (Pen at 4; D-Ala at 9; Sar at 10; disulfide; C-terminal amide) [Peptide No. 189] came in with a Kd with soluble human FcRn [3] of 190 nM. For the molecule QRFXTGHFRGLYPCNGP (Pen at 4; D-Arg at 9; disulfide; C-terminal amide) [Peptide No. 49], the concentration for half-maximal inhibition (IC50) in the test with soluble human FcRn [4] is 4.1 µM.

Consider QRFXTGHFFGLYPCNGP (Pen at 4; D-Phe at 9; NMeLeu at 11; disulfide; C-terminal amide) [Peptide No. 153], for which, in the test with soluble human FcRn [3], the Kd was 240 nM. Also, the IC50 with soluble human FcRn [4] stood at 1.3 µM. Turning to QRFXTGHFFPLYPCNGP (Pen at 4; D-Phe at 9 (L-Pro at 10); disulfide; C-terminal amide) [Peptide No. 203], the Kd in the test with soluble human FcRn [3] stood at 3800 nM.

In the test with soluble human FcRn [3], QRFXTGHFFGLYPCNGP (Pen at 4; D-Phe at 9; disulfide; C-terminal amide) [Peptide No. 52] had a Kd of 510 nM. Besides, in the test with soluble human FcRn [4], the IC50 was 2.8 µM.

B5: Peptide No. 271 (peptide)
peptide: RFXTGXFGGLYPC
modifications: Pen at 3; triazolylAla at 6; Sar at 9; NMeLeu at 10; disulfide; C-terminal amide
In the test with soluble human FcRn [1], B5 returned an IC50 of 5.7 µM.

B6: Peptide No. 261 (peptide)
peptide: RFXTGXFGGLYPC
modifications: Pen at 3; PropargylGly at 6; Sar at 9; NMeLeu at 10; disulfide; C-terminal amide
Turning to B6, the IC50 in the test with soluble human FcRn [1] was determined as 160 µM. QRFXTGHFXGLYPCNGP (Pen at 4; Aib at 9; disulfide; C-terminal amide) [Peptide No. 54] had a Kd with soluble human FcRn [3] of 5200 nM. This molecule yielded an IC50 with soluble human FcRn [4] of 17 µM.

B7: Peptide No. 248 (peptide)
peptide: RFXTGXFGGLYPC
modifications: not fully specified; Pen at 3; Thz at 6; Sar at 9; NMeLeu at 10; disulfide; C-terminal amide
On to B7, for which the Kd in the test with soluble human FcRn [2] is 840 nM. For the same molecule, the IC50 with soluble human FcRn [1] amounted to 1.6 µM. Take RFXTGAFGGLYPC (Pen at 3; Sar at 9; NMeLeu at 10; disulfide; C-terminal amide) [Peptide No. 266]: the Kd with soluble human FcRn [2] is 9900 nM. This molecule also displayed an IC50 with soluble human FcRn [1] of over 100 µM.

B8: Peptide No. 36 (peptide)
peptide: QRFCTG[Dab]FGGLYPCNGP-NH2
modifications: disulfide 4-14; N-terminus assumed
SMILES: CC(C)C[C@@H]1NC(=O)CNC(=O)CNC(=O)[C@H](Cc2ccccc2)NC(=O)[C@H](CCN)NC(=O)CNC(=O)[C@H]([C@@H](C)O)NC(=O)[C@@H](NC(=O)[C@H](Cc2ccccc2)NC(=O)[C@H](CCCNC(=N)N)NC(=O)[C@@H](N)CCC(N)=O)CSSC[C@@H](C(=O)N[C@@H](CC(N)=O)C(=O)NCC(=O)N2CCC[C@H]2C(N)=O)NC(=O)[C@@H]2CCCN2C(=O)[C@H](Cc2ccc(O)cc2)NC1=O
The molecule B8 gave a half-maximal inhibitory concentration (IC50) with soluble human FcRn [1] of over 125 µM. For the molecule RFXTGXFGGLYPC (Pen at 3; Orn at 6; Sar at 9; NMeLeu at 10; disulfide; C-terminal amide) [Peptide No. 254], binding in the test with soluble human FcRn [2] was characterised by a dissociation constant (Kd) of 1300 nM.

B9: Peptide No. 269 (peptide)
peptide: RFXTGXFGGLYPC
modifications: Pen at 3; Thz(Me) (N-methyl-thiazolium) at 6; Sar at 9; NMeLeu at 10; disulfide; -CONH2
Regarding B9, the IC50 in the test with soluble human FcRn [1] was determined as 2.4 µM.
